In paper PMC11893383 (Frontiers in Immunology, 2025):

B1: AB5-20 (antibody, V domains shown)
VH: QVQLVESGGGVVQPGRSLRLSCTASGFTFRHYGLHWVRQAPGKGLEWVAVILYDGSDEDYRDSVKGRFTISRDNSKNTLYLQMNSLRPEDTAVYYCAKQSGPYCSGGNCYSGHFDYWGQGTPVSVSS
VL: DIQMTQSPSSLSASVGDRVTITCQASQDISKSLSWYEQKPGKAPRLLIFEASNLETGVPSRFSGSGSGTSFSFTISSLQPEDFATYYCQQYDNVPLTFGGGTKVERK
B2: AB5-16 (antibody, V domains shown)
VH: QALMVQSEAAVKKPGASVKVSCKATGDAFSNHYLHWLRQAPGQGLEWLGIINPGAGSTTYAQKFQGRLTVTTDTSTNTVYMELSSLRSDDTAVYYCARDGAFIPSSYYYGMDVWGQGTTVTVSS
VL: EIVLTQSPGTLALSPGERATLSCRASQSVSSSYLAWYQQKPGQAPRLLIYGASSRATGVPDRFSGSGSGTDFTLTVSSLEPEDFAVYYCQQREAFGQGTKVEVK
B3: AB5-18 (antibody, V domains shown)
VH: EVQLVESGGGLVQPGGSLRLSCAASGITVTSNYMTWVRQAPGKGLEWVSLIYAGGSTFYADSVKGRFTVSRDKSKNTLYLQMNSLRGEDTAVYYCARDLQEAGGMDVWGQGTTVTVSS
VL: ENVLTQSPGTLSLSPGERATLSCRASQFVSSTFLAWYQQKPGQAPRLLMYGASNRATDIPDRFSGGGSGTDFTLTISRLEPEDFAVYYCQQFGSSPFTFGQGTKLEIK
B4: AB6-17 (antibody, V domains shown)
VH: QLQLQESGPGLVESSETLSLTCTVSSGSISRSTYYWGWIRQPPGKGMEWIGSISSGGSTYYNPSLNSRVTISIDTSKNQFSLKLRSVTAADTAVYYCARALQWPSPRIDYWAQGTLVTVSS
VL: DIQMTQSPSSLSASVGDRVTITCRASQSISSYLNWYQHKPGKAPKLLIYAASSLESGVPSRFTGSGSGTDFTLTIDSLQPEDFATYYCQQSYSTPLFTFGPGTTVDIK
B5: AB5-21 (antibody, V domains shown)
VH: EVQLVESGGGLVQPGGSLRLSCAASGLIVSSNYMHWVRQAPGEGLEWVSVIYSGGSTFYADSVKGRFTISRDNSKNTLYLQMNSLRAEDTAVYYCARGLGDPMDVWGQGTTVTVSS
VL: DIQLTQSPSFLSASVGDRVTITCRASQGISSDLAWYQQKPGKAPKLLINAASTLQNGVPSRFSGSGSGTEFTLSISSLQPEDFATYYCQQLNSYPPKLTFGGGTKVEIK

Experiments:
[1] = molecular target: T1, SARS-CoV-2 wild-type (WT) spike trimer (SARS-CoV-2, wild type (Wuhan-Hu-1 …, UniProt P0DTC2)); assay: ELISA; settings: both partners purified
T1 construct: also called spike protein

[2] = molecular target: T2, SARS-CoV-2 Omicron B.1.1.529 receptor-binding domain (RBD), His-tagged (SARS-CoV-2 Omicron B.1.1.529 (BA.1), strain); assay: BLI; settings: both partners purified
T2 construct: also called B.1.1.529 RBD; RBD Omicron B.1.1.529

Row | Binder | binding result [1] | Kd [2] [nM]
1 | B1 | binds | 
2 | B2 | binds | 
3 | B3 |  | 3.4
4 | B4 | binds | 
5 | B5 |  | 30
